Reference: patent publication US9096835B2, “DNA polymerase” (Medical Research Council, priority 2003, dated 2015)

Legend:
Format in all cases: biochemical
four mismatch primers = assay: PCR screen of clones with four mismatch primers; conditions: 292 base pair product, 50 cycles of PCR
Method: The resultant clones from both CSR and CST were screened and ranked by PCR assay. Briefly, 2 μl of induced cells were added to 20 μl of PCR mix with the relevant 4 mismatch primers. Clones that produced a band were then subjected to further analysis and their activity on single, double and quadruple mismatch primers (single mismatch primers: 5′-CAGGAAACAGCTATGACAAAAATCTAGATAACGAGGGA-3′ (SEQ ID NO: 48) and 5′-GTAAAACGACGGCCAGTACCACCGAACTGCGGGTGACGCCAAGCC 3′ (SEQ ID NO: 49); double mismatch primers: CAGGAAACAGCTATGACTCGACAAAAATCTAGATAACGACC (SEQ ID NO: 50) and GTAAAACGACGGCCAGTTTATTAACCACCGAACTGC (SEQ ID NO: 51); four mismatch primers above.) was investigated. Polymerases that could extend all of these mismatches were found, though many polymerases could do only one of the mismatches and […].
The best first and second round clones were shuffled as described above and subjected to another round of CSR. The same two sets of mismatch primers with four mismatches at their 3′ end were used in the emulsion as two separate sources of selective pressure. This was then dealt with as above and the resultant clones were screened and ranked by PCR assay (as above). Once again, polymerases that could extend all of these mismatches were found. In particular, clones 3B5.

[1] = tested on: template containing an abasic site; assay: Translesion replication assay (primer extension), abasic site; conditions: gel-extension assay, 60° C.
Method: Template primers 22 (undamaged) or 23 (containing a synthetic abasic site) were synthesized by Lofstrand Laboratories (Gaithersburg, Md.). Template primer 24 (containing a single cis-syn thymine dimer), was synthesized as described (34). Primer 25 was ^32P-labeled and annealed to one of the three templates 22, 23, 24 (at a primer template ratio of molar 1:1.5) and extended in 40 mM Tris.HCl at pH 8.0, 5 mM MgCl2, 100 μM of each dNTP, 10 mM DTT, 250 μg/ml BSA, 2.5% glycerol, 10 nM primer-template DNA and 0.1 Unit of polymerase at 60° C. for various times.
Primer extension assays were essentially as described in (Ghadessy et al., 2004). Briefly, undamaged oligonucleotides and a 51mer containing a synthetic abasic site were synthesized by Lofstrand Laboratories (Gaithersburg, Md.) using standard techniques and were gel purified prior to use. A 20mer primer (LES—20 P) with the sequence 5′-[…]-3′ (SEQ ID NO: 99) was 5′-labeled with [^32P]ATP (5000 Ci/mmole; 1 Ci=37 GBq) (Pharmacia) using T4 polynucleotide kinase (Invitrogen, Carlsbad Calif.). Radiolabeled primer-template DNAs were prepared by annealing the 5′[^32P] labeled 20mer primer to one of the two following 51mer templates (at a primer template ratio of molar 1:1.5). 1) undamaged DNA (UNDT51T); 5′-AGCTACCATGCCTGCACGAATTCGGCATCCGTCGCGACCACGGTCGCAGCG-3′ (SEQ ID NO: 100); 2) an oligo (LABA51T) containing a synthetic abasic site (indicated as an X in bold font); 5′-AGCTACCATGCCTGCACGACA XCG GCATCCGTCGCGACCACGGTCGCAGCG-3′ (SEQ ID NO: 101). Standard replication reactions of 10 contained 40 mM Tris.HCl at pH 8.0, 5 mM MgCl2, 100 μM of each ultrapure dNTP (Amersham Pharmacia Biotech, NJ), 10 mM DTT, 250 μg/ml BSA, 2.5% glycerol, 10 nM 5′[32P] primer-template DNA and 0.1 Unit of polymerase. After incubation at 60° C. for various times reactions were terminated by the addition of 10 μl of 95% formamide/10 mM EDTA and the samples heated to 100° C. for 5 min. Reaction mixtures (5 μl) were subjected to 20% polyacrylamide/7 M Urea gel electrophoresis and replication products visualized by PhosphorImager analysis.

[2] = tested on: primers with an abasic site seven bases from their 3′ end; assay: Abasic site bypass in PCR; conditions: 176 bp product, 20 cycles of PCR
Method: FIG. 10. A list of polymerases selected to extend four mismatches were assayed for their ability to extend abasic sites in PCR. Primers with an abasic site seven bases from their 3′ end were designed. Such primers will prevent exponential amplification of the target sequence, restricting it to […] amplification, unless the abasic site is bypassed. […] (A) Screen which identified clone A10. (B) A further 4 polymerases that display good abasic site bypass. Lane M: markers, Hae III digest of Φ X174.
A list of polymerases selected to extend four mismatches were assayed for their ability to extend abasic sites in PCR (FIG. 10).

B1: 3B5: third round clone, four mismatch extension; SEQ ID NO: 88 (protein)
chain: MAMLPLFEPKGRVLLVDGHHLAYRTSFALKGPTTSRGEPVQVVYGFAKSLLKALKEDGYKAVFVVFDAKAPPFRHKAYEAYRAGRAPTPEDFPRQLALVKELVDLLGFTRLEVPGYEADDVLATLAKKAEKEGYEVRILTADRGLYQLVSDRVAVLHPEGHLITPEWLWEKYGLRPEQWVDFRALVGDPSDNLPGVKGIGEKTALKLLKEWGSLENLLKNLDRVKPENVREKIKAHLEDLRLSLELSRVRTDLPLEVDLAQGREPDRERLRAFLERLEFGSLLHEFGLLESPKALEEAPWPPPEGAFVGFVLSRKAPMWADLLALAAARGGRVYRAPEPYKALRDLKEARGLLAKDLSVLALREGLGLPPGDDPMLLAYLLDPSNTTPEGVARRYGGEWTEEAGERAALSERLFANLWGRLEGEERLLWLYREVDRPLSAVLAHMEATGVRLDVACLQALSLELAEEIRRLEEEVFRLAGHTFNLNSRDQLERVLFDELGLPAIGKTEKTGKRSTSAAILEALREAHPIVEKILQYRELTKLKSTYIDPLPDLIHPRTGRLHTRFNQTATATGRLSSSDPNLQNIPVRTPLGQRIRRAFIAEEGWLLVVLDYSQIELRVLAHLSGDENLIRVFQEGRDIHTETASWMFGVPREAVDPLMRRAAKTINFGVLYGMSAHRLSQELAIPYEEAQAFIERYFQSFPKVRAWIEKALEEGRRRGYVETLFGRRRYVPDLNARVKSVREAAERMAFNMPVQGTAADLMKLAMVKLFPRLREMGARMLLQVHDELLLEAPQARAEEVAALAKEAMEKAYPLAVPLEVKVGIGEDWLSAKE
modifications: Mutant Taq polymerase
Q: For B1, which “extension of primers containing four mismatches in PCR” value (“extension … in PCR” for short) (four mismatch primers) is on record?
A: Its value is “able to extend primers containing four mismatches”.

B2: 3C12: third round clone, four mismatch extension; SEQ ID NO: 96 (protein)
chain: MAMLPLFEPKGRVLLVDGHHLAYRTFFALKGPTTSRGEPVQVVYGFAKSLLKALKEDGYKAVFVVFDAKAPSFRHKAYEAYRAGRAPTPEDFPRQLALIKELVDLLGFTRLEVPGYEADDVLATLAKKAEKEGYEVRILTADRGLYQLVSDRVAVLHPEGHLITPEWLWEKYGLRPEQWVDFRALVGDPSDNLPGVKGIGEKTALKLLKEWGSLENLLKNLDRVKPENVREKIKAHLEDLRLSLELSRVRTDLPLEVDLAQGREPDREGLRAFLERLEFGSLLHEFGLLESPKALEEAPWPPPEGAFVGFVLSRKEPMWADLLALAAARGGRVHRAPEPYKALRDLKEARGLLAKDLSVLALREGLGLPPGDDPMLLAYLLDPSNTAPEGVARRYGGEWTEEAGERAALSERLFANLWGRLEGEERLLWLYREVDRPLSAVLAHMEATGVRLDVACLQALSLELAEEIRRLEEEVFRLAGHPFNLNSRDQLERVLFDELGLPAIGKTEKTGKRSTSAAILEALREAHPIVEKILQYRELTKLKSTYIDPLPDLIHPRTGRLHTRFNQTATATGRLSSSGPNLQNIPVRTPLGQRIRRAFVAEEGWLLVVLDYSQIELRVLAHLSGDENLTRVFLEGRDIHTETASWMFGVPREAVDPLMRRAAKTINFGVLYGMSAHRLSQELAIPYEEAQAFIERYFQSFPKVRAWIEKTLEEGRKRGYVETLFGRRRYVPDLNARVKSVREAAERMAFNMPVQGTAADLMKLAMVKLFPRLREMGARMLLQVHDELLLEAPQARAEEVAALAKEAMEKAYPLAVPLEVKVGIGEDWLSAKE
modifications: Mutant Taq polymerase
Q: With B2 as the molecule, how does the “extension … in PCR” value (four mismatch primers) read?
A: The value was “able to extend primers containing four mismatches”.

Q: What about the “extension … in PCR” value (four mismatch primers; listed as C12) of the same molecule?
A: Its value is “can also extend four mismatched primers in PCR”.

Q: And the “abasic site bypass in primer extension” value [1]?
A: Its value is “improved abasic site activity”.

Q: And the “amplification product in PCR with abasic site primers” value [2]?
A: Its value is “produced an amplification product”.

B3: 3B6: third round clone, abasic site bypass; SEQ ID NO: 90 (protein)
chain: MAMLPLFEPKGRVLLVDGHHLAYRAFFALKGLTTSRGEPVQAVYGFAKSLLKALKEDGYKAVFVVFDAKAPSFRHEAYEAYKAGRAPTPEDFPRQLALIKELVDLLGFTRLEVQGYEADDVLATLAKKAEKEGYEVRILTADRDLYQLVSDRVAVLHPEGHLITPEWLWEKYGLRPEQWVDFRALVGDPSNNLPGVKGIGEKTALKLLKEWGSLENLLKNLDRVKPENVREKIKAHLEDLRLSLELSRVRTDLPLEVDLAQGRELDRERLRAFLERLEFGGLLHEFGLLESPKALEEAPWPPPEGAFVGFVLSRKEPMWADLLALAAARGGRVHRAPEPYKALRDLKEARGLLAKDLSVLALREGLGLPPGDDPMLLAYLLDPSNTAPEGVARRYGGEWTEEAGERAALSERLFANLWGRLEGEERLLWLYREVDRPLSAVLAHMEATGVRLDVAYLRALSLEVAEEIARLEAEVFRLAGHPFNLNSRDQLERVLFDELGLPAIGKTEKTGKRSTSAAVLEALREAHPIVEKILQYRELTKLKSTYIDPLPNLIHPRTGRLHTRFNQTATATGRLSSSDPNLQNIPVRTPLGQRIRRAFIAEEGWLLVVLDYSQIELRVLAHLSGDENLIRVFQEGRDIHTETASWMFGVPREAVDPLMRRAAKTINFGVLYGMSAHRLSQELAIPYEEAQAFIERYFQSFPKVRAWIEKTLEEGRKRGYVETLFGRRRYVPDLNARVKGVREAAERMAFNMPVQGTAADLMKLAMVKLFPRLREMGARMLLQVHDELLLEAPQARAGEVAALAKEAMEKAYPLAVPLEVKVGIGEDWLSAKE
modifications: Mutant Taq polymerase
Q: What does the source list for B3?
A: extension of primers containing four mismatches in PCR (four mismatch primers): cannot; amplification product in PCR with abasic site primers [2]: produced an amplification product

B4: 3B8: third round clone; SEQ ID NO: 92 (protein)
chain: MAMLPLFEPKGRVLLVDGHHLAYRTFFALKGLTTSRGEPVQVVYGFAKSLLKALKEDGYKAVFVVFDAKAPSLRHEAYEAYKAGRAPTPEDFLRQLALIKELVDLLGFTRLEVQGYEADDVLATLAKKAEKEGYEVRILTADRDLYQLVSDRVAVLHPEGHLITPEWLWEKYGLRPEQWVDFRALVGDPSDNLPGVKGIGEKTALKLLKEWGSLENLLKNLDRLKPAIREKILAHMDDLKLSWDLAKVRTDLPLEVDFAKRREPDRERLRAFLERLELGSLLHEFGLLESPKTLEEASWPPPEGAFVGFVLSRKEPMWADLLALAAARGGRVHRAPEPYKALRDLKEARGLLAKDLSVLALREGLGLPPGDDPMLLAYLLDPSNTTPEGVARRYGGEWTKEAGERAALSERLFANLWGRLEGEERLLWLYREVDRPLSAVLAHMEATGVRLDVAYLRALSLEVAEEIARLEAEVFRLAGHPFNLNSRDQLERVLFDELGLPAIGKTEKTGKRSTSAAVLEALREAHPIVEKILQYRELTKLKSTYIDPLPDLIHPRTGRLHTRFNQTATATGRLSSSDPNLQNIPVRTPLGQRIRRAFVAEEGWLLVVLDYSQIELRVLAHLSGDENLTRVFLEGRDIHTETASWMFGVPREAVDPLMRRAAKTINFGVLYGMSAHRLSQELAIPYEEAQAFIERYFQSFPKVRAWIEKTLEEGRKRGYVETLFGRRRYVPDLNARVKSVREAAERMAFNMPVQGTAADLMKLAMVKLFPRLREMGARMLLQVHDELLLEAPQARAEEVAALAKEAMEKAYPLAVPLEVKEGIGEDWLSAKE
modifications: Mutant Taq polymerase
Q: With B4 as the molecule, how does the “extension … in PCR” value (four mismatch primers) read?
A: Its value is “able to extend primers containing four mismatches”.

Q: What about the “extension … in PCR” value (four mismatch primers; listed as B8) of the same molecule?
A: Its value is “cannot”.

Q: And the “amplification product in PCR with abasic site primers” value [2]?
A: Its value is “produced an amplification product”.
